Experimental data reported in US20140087995A1 (published 2014).
Numbered stars: 1 amine (or outer) side, 2 acyl side, 3 side chain; on linkers, the order of the positions; unused ones are H or OH. Bridge positions count the residues as written; N and C are the ends. Side chains are listed from the residue outwards. Ends that are not written are not given here. * marks the point of attachment. C20 diacid = O=C(O)CCCCCCCCCCCCCCCCCCC(=O)*; γGlu = O=C(O)[C@H](CCC(=O)[*:2])N[*:1]; AEEA = NCCOCCOCC(=O)O

T1: human amylin 3(a) receptor (human calcitonin receptor co-expressed with RAMP-3) (human, UniProt P30988 25-474; O60896 24-148, limits assumed)
T1 sequence (looked up) 1: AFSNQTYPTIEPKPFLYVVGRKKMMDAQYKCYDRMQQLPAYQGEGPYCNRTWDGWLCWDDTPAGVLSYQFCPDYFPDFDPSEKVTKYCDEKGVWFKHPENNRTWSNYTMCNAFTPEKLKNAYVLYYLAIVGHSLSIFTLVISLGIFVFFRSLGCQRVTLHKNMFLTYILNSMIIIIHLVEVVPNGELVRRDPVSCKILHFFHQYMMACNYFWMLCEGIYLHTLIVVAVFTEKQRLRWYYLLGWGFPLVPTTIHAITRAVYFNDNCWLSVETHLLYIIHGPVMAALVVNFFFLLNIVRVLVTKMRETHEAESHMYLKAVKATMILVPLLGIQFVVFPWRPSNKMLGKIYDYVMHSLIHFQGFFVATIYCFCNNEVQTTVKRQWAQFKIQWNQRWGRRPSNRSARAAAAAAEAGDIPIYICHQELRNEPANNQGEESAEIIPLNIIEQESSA
T1 sequence (looked up) 2: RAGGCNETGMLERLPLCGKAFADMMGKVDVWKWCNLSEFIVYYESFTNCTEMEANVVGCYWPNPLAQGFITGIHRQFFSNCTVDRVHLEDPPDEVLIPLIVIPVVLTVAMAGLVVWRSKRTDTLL

B1: N^ε1-[2-[2-[2-[[(4S)-4-carboxy-4-(19-carboxynonadecanoylamino)butanoyl]amino]ethoxy]ethoxy]acetyl]-[Arg17,Pro21,Pro27]-h-amylin (peptide)
peptide: K([AEEA-γGlu-C20 diacid])CNTATCATQRLANFLRHSSPNFGAIPSSTNVGSNTY-NH2
modifications: disulfide 2-7; N-terminus assumed
SMILES: CC[C@H](C)[C@H](NC(=O)[C@H](C)NC(=O)CNC(=O)[C@H](Cc1ccccc1)NC(=O)[C@H](CC(N)=O)NC(=O)[C@@H]1CCCN1C(=O)[C@H](CO)NC(=O)[C@H](CO)NC(=O)[C@H](Cc1c[nH]cn1)NC(=O)[C@H](CCCNC(=N)N)NC(=O)[C@H](CC(C)C)NC(=O)[C@H](Cc1ccccc1)NC(=O)[C@H](CC(N)=O)NC(=O)[C@H](C)NC(=O)[C@H](CC(C)C)NC(=O)[C@H](CCCNC(=N)N)NC(=O)[C@H](CCC(N)=O)NC(=O)[C@@H](NC(=O)[C@H](C)NC(=O)[C@@H]1CSSC[C@H](NC(=O)[C@@H](N)CCCCNC(=O)COCCOCCNC(=O)CC[C@H](NC(=O)CCCCCCCCCCCCCCCCCCC(=O)O)C(=O)O)C(=O)N[C@@H](CC(N)=O)C(=O)N[C@@H]([C@@H](C)O)C(=O)N[C@@H](C)C(=O)N[C@@H]([C@@H](C)O)C(=O)N1)[C@@H](C)O)C(=O)N1CCC[C@H]1C(=O)N[C@@H](CO)C(=O)N[C@@H](CO)C(=O)N[C@H](C(=O)N[C@@H](CC(N)=O)C(=O)N[C@H](C(=O)NCC(=O)N[C@@H](CO)C(=O)N[C@@H](CC(N)=O)C(=O)N[C@H](C(=O)N[C@@H](Cc1ccc(O)cc1)C(N)=O)[C@@H](C)O)C(C)C)[C@@H](C)O
notes: also called compound 41
B2: N^ε1-[(4S)-4-carboxy-4-(19-carboxynonadecanoylamino)butanoyl]-[His14,Arg17,Pro21,Pro27]-h-amylin (peptide)
peptide: K([γGlu-C20 diacid])CNTATCATQRLAHFLRHSSPNFGAIPSSTNVGSNTY-NH2
modifications: disulfide 2-7; N-terminus assumed
SMILES: CC[C@H](C)[C@H](NC(=O)[C@H](C)NC(=O)CNC(=O)[C@H](Cc1ccccc1)NC(=O)[C@H](CC(N)=O)NC(=O)[C@@H]1CCCN1C(=O)[C@H](CO)NC(=O)[C@H](CO)NC(=O)[C@H](Cc1c[nH]cn1)NC(=O)[C@H](CCCNC(=N)N)NC(=O)[C@H](CC(C)C)NC(=O)[C@H](Cc1ccccc1)NC(=O)[C@H](Cc1c[nH]cn1)NC(=O)[C@H](C)NC(=O)[C@H](CC(C)C)NC(=O)[C@H](CCCNC(=N)N)NC(=O)[C@H](CCC(N)=O)NC(=O)[C@@H](NC(=O)[C@H](C)NC(=O)[C@@H]1CSSC[C@H](NC(=O)[C@@H](N)CCCCNC(=O)CC[C@H](NC(=O)CCCCCCCCCCCCCCCCCCC(=O)O)C(=O)O)C(=O)N[C@@H](CC(N)=O)C(=O)N[C@@H]([C@@H](C)O)C(=O)N[C@@H](C)C(=O)N[C@@H]([C@@H](C)O)C(=O)N1)[C@@H](C)O)C(=O)N1CCC[C@H]1C(=O)N[C@@H](CO)C(=O)N[C@@H](CO)C(=O)N[C@H](C(=O)N[C@@H](CC(N)=O)C(=O)N[C@H](C(=O)NCC(=O)N[C@@H](CO)C(=O)N[C@@H](CC(N)=O)C(=O)N[C@H](C(=O)N[C@@H](Cc1ccc(O)cc1)C(N)=O)[C@@H](C)O)C(C)C)[C@@H](C)O
notes: also called compound 70
B3: N^ε1-[(4S)-4-carboxy-4-[[(4S)-4-carboxy-4-(19-carboxynonadecanoylamino)butanoyl]amino]butanoyl]-[Arg17,Pro21,Pro27,His34]-h-amylin (peptide)
peptide: K([γGlu-γGlu-C20 diacid])CNTATCATQRLANFLRHSSPNFGAIPSSTNVGHNTY-NH2
modifications: disulfide 2-7; N-terminus assumed
SMILES: CC[C@H](C)[C@H](NC(=O)[C@H](C)NC(=O)CNC(=O)[C@H](Cc1ccccc1)NC(=O)[C@H](CC(N)=O)NC(=O)[C@@H]1CCCN1C(=O)[C@H](CO)NC(=O)[C@H](CO)NC(=O)[C@H](Cc1c[nH]cn1)NC(=O)[C@H](CCCNC(=N)N)NC(=O)[C@H](CC(C)C)NC(=O)[C@H](Cc1ccccc1)NC(=O)[C@H](CC(N)=O)NC(=O)[C@H](C)NC(=O)[C@H](CC(C)C)NC(=O)[C@H](CCCNC(=N)N)NC(=O)[C@H](CCC(N)=O)NC(=O)[C@@H](NC(=O)[C@H](C)NC(=O)[C@@H]1CSSC[C@H](NC(=O)[C@@H](N)CCCCNC(=O)CC[C@H](NC(=O)CC[C@H](NC(=O)CCCCCCCCCCCCCCCCCCC(=O)O)C(=O)O)C(=O)O)C(=O)N[C@@H](CC(N)=O)C(=O)N[C@@H]([C@@H](C)O)C(=O)N[C@@H](C)C(=O)N[C@@H]([C@@H](C)O)C(=O)N1)[C@@H](C)O)C(=O)N1CCC[C@H]1C(=O)N[C@@H](CO)C(=O)N[C@@H](CO)C(=O)N[C@H](C(=O)N[C@@H](CC(N)=O)C(=O)N[C@H](C(=O)NCC(=O)N[C@@H](Cc1c[nH]cn1)C(=O)N[C@@H](CC(N)=O)C(=O)N[C@H](C(=O)N[C@@H](Cc1ccc(O)cc1)C(N)=O)[C@@H](C)O)C(C)C)[C@@H](C)O
notes: also called compound 86
B4: N^ε1-[(4S)-4-carboxy-4-[[(4S)-4-carboxy-4-(19-carboxynonadecanoylamino)butanoyl]amino]butanoyl]-[Glu14,Arg17,Pro21,Pro27,Arg35]-h-amylin (peptide)
peptide: K([γGlu-γGlu-C20 diacid])CNTATCATQRLAEFLRHSSPNFGAIPSSTNVGSRTY-NH2
modifications: disulfide 2-7; N-terminus assumed
SMILES: CC[C@H](C)[C@H](NC(=O)[C@H](C)NC(=O)CNC(=O)[C@H](Cc1ccccc1)NC(=O)[C@H](CC(N)=O)NC(=O)[C@@H]1CCCN1C(=O)[C@H](CO)NC(=O)[C@H](CO)NC(=O)[C@H](Cc1c[nH]cn1)NC(=O)[C@H](CCCNC(=N)N)NC(=O)[C@H](CC(C)C)NC(=O)[C@H](Cc1ccccc1)NC(=O)[C@H](CCC(=O)O)NC(=O)[C@H](C)NC(=O)[C@H](CC(C)C)NC(=O)[C@H](CCCNC(=N)N)NC(=O)[C@H](CCC(N)=O)NC(=O)[C@@H](NC(=O)[C@H](C)NC(=O)[C@@H]1CSSC[C@H](NC(=O)[C@@H](N)CCCCNC(=O)CC[C@H](NC(=O)CC[C@H](NC(=O)CCCCCCCCCCCCCCCCCCC(=O)O)C(=O)O)C(=O)O)C(=O)N[C@@H](CC(N)=O)C(=O)N[C@@H]([C@@H](C)O)C(=O)N[C@@H](C)C(=O)N[C@@H]([C@@H](C)O)C(=O)N1)[C@@H](C)O)C(=O)N1CCC[C@H]1C(=O)N[C@@H](CO)C(=O)N[C@@H](CO)C(=O)N[C@H](C(=O)N[C@@H](CC(N)=O)C(=O)N[C@H](C(=O)NCC(=O)N[C@@H](CO)C(=O)N[C@@H](CCCNC(=N)N)C(=O)N[C@H](C(=O)N[C@@H](Cc1ccc(O)cc1)C(N)=O)[C@@H](C)O)C(C)C)[C@@H](C)O
notes: also called compound 89
B5: N^ε1-[(4S)-4-carboxy-4-[[(4S)-4-carboxy-4-(19-carboxynonadecanoylamino)butanoyl]amino]butanoyl]-[Asp14,Arg17,Pro21,Pro27,Asp35]-h-amylin (peptide)
peptide: K([γGlu-γGlu-C20 diacid])CNTATCATQRLADFLRHSSPNFGAIPSSTNVGSDTY-NH2
modifications: disulfide 2-7; N-terminus assumed
SMILES: CC[C@H](C)[C@H](NC(=O)[C@H](C)NC(=O)CNC(=O)[C@H](Cc1ccccc1)NC(=O)[C@H](CC(N)=O)NC(=O)[C@@H]1CCCN1C(=O)[C@H](CO)NC(=O)[C@H](CO)NC(=O)[C@H](Cc1c[nH]cn1)NC(=O)[C@H](CCCNC(=N)N)NC(=O)[C@H](CC(C)C)NC(=O)[C@H](Cc1ccccc1)NC(=O)[C@H](CC(=O)O)NC(=O)[C@H](C)NC(=O)[C@H](CC(C)C)NC(=O)[C@H](CCCNC(=N)N)NC(=O)[C@H](CCC(N)=O)NC(=O)[C@@H](NC(=O)[C@H](C)NC(=O)[C@@H]1CSSC[C@H](NC(=O)[C@@H](N)CCCCNC(=O)CC[C@H](NC(=O)CC[C@H](NC(=O)CCCCCCCCCCCCCCCCCCC(=O)O)C(=O)O)C(=O)O)C(=O)N[C@@H](CC(N)=O)C(=O)N[C@@H]([C@@H](C)O)C(=O)N[C@@H](C)C(=O)N[C@@H]([C@@H](C)O)C(=O)N1)[C@@H](C)O)C(=O)N1CCC[C@H]1C(=O)N[C@@H](CO)C(=O)N[C@@H](CO)C(=O)N[C@H](C(=O)N[C@@H](CC(N)=O)C(=O)N[C@H](C(=O)NCC(=O)N[C@@H](CO)C(=O)N[C@@H](CC(=O)O)C(=O)N[C@H](C(=O)N[C@@H](Cc1ccc(O)cc1)C(N)=O)[C@@H](C)O)C(C)C)[C@@H](C)O
notes: also called compound 2
B6: N^ε-[(4S)-4-carboxy-4-(19-carboxynonadecanoylamino)butanoyl]Lys[Arg1,Arg17,Pro21,Pro27,His35]-h-amylin (peptide)
peptide: K([γGlu-C20 diacid])RCNTATCATQRLANFLRHSSPNFGAIPSSTNVGSHTY-NH2
modifications: disulfide 3-8; N-terminus assumed
SMILES: CC[C@H](C)[C@H](NC(=O)[C@H](C)NC(=O)CNC(=O)[C@H](Cc1ccccc1)NC(=O)[C@H](CC(N)=O)NC(=O)[C@@H]1CCCN1C(=O)[C@H](CO)NC(=O)[C@H](CO)NC(=O)[C@H](Cc1c[nH]cn1)NC(=O)[C@H](CCCNC(=N)N)NC(=O)[C@H](CC(C)C)NC(=O)[C@H](Cc1ccccc1)NC(=O)[C@H](CC(N)=O)NC(=O)[C@H](C)NC(=O)[C@H](CC(C)C)NC(=O)[C@H](CCCNC(=N)N)NC(=O)[C@H](CCC(N)=O)NC(=O)[C@@H](NC(=O)[C@H](C)NC(=O)[C@@H]1CSSC[C@H](NC(=O)[C@H](CCCNC(=N)N)NC(=O)[C@@H](N)CCCCNC(=O)CC[C@H](NC(=O)CCCCCCCCCCCCCCCCCCC(=O)O)C(=O)O)C(=O)N[C@@H](CC(N)=O)C(=O)N[C@@H]([C@@H](C)O)C(=O)N[C@@H](C)C(=O)N[C@@H]([C@@H](C)O)C(=O)N1)[C@@H](C)O)C(=O)N1CCC[C@H]1C(=O)N[C@@H](CO)C(=O)N[C@@H](CO)C(=O)N[C@H](C(=O)N[C@@H](CC(N)=O)C(=O)N[C@H](C(=O)NCC(=O)N[C@@H](CO)C(=O)N[C@@H](Cc1c[nH]cn1)C(=O)N[C@H](C(=O)N[C@@H](Cc1ccc(O)cc1)C(N)=O)[C@@H](C)O)C(C)C)[C@@H](C)O
notes: 38 residues; also called compound 44

What follows are binders tested against T1, human amylin 3(a) receptor (human …) (assay: cell-based or functional assay).

Row | Binder | Ratio hCT/hAmylin funct. (hCTR EC50 over hAmylin-R EC50) | hAmylin-R funct. EC50 (pM)
1 | B1 | 16.7 | 260
2 | B2 | 17.9 | 40
3 | B3 | 64.4 | 298
4 | B4 | 27.8 | 404
5 | B5 | 16.4 | 182
6 | B6 | 24 | 198
